# Literature values as cited in paper PMC2739727.
# Experiments:
# [1] = molecular target: IL-13Rα1/IL-4Rα (Homo sapiens) (UniProt P78552)
# [2] = molecular target: IL-13Rα2 (Homo sapiens) (UniProt Q14627)
# Chain of UniProt Q14627 (Q14627 27-343): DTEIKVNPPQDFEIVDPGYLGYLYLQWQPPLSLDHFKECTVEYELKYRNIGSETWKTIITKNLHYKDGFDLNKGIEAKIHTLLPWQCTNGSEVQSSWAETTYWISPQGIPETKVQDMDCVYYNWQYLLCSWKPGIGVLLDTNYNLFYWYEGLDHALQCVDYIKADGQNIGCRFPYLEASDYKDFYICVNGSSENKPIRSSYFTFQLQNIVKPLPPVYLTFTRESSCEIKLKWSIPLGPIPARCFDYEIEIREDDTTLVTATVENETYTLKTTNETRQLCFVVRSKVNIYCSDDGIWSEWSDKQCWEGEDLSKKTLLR
# Chain of UniProt P78552 (P78552 22-343, chain 1 of 2): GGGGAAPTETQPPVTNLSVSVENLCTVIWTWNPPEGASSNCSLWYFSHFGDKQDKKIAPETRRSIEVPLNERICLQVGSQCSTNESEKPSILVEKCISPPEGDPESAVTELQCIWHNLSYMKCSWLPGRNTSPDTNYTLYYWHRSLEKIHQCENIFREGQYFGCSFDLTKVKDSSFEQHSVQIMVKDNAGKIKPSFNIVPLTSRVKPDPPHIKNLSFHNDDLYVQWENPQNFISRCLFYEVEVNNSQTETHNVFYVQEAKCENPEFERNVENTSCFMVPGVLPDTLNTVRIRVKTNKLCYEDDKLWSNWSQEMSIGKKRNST
# Chain of UniProt P78552 (P24394 26-232, chain 2 of 2, further chain): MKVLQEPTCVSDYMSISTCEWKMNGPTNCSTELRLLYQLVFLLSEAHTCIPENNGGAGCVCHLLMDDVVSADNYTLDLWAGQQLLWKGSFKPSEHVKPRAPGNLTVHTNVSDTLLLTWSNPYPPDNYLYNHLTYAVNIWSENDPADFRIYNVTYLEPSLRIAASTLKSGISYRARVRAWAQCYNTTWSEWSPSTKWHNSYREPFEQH
substance,measurement,setting,value
IL-13 (from UniProt P35225),Kd,[1],0.2 nM
same,Kd,[2],0.2 nM
